{"source": "paper PMC3547664", "tested_on": "T1, PhoB (Bacteroides fragilis YCH46), ORF:3d02aa67", "T1 sequence": "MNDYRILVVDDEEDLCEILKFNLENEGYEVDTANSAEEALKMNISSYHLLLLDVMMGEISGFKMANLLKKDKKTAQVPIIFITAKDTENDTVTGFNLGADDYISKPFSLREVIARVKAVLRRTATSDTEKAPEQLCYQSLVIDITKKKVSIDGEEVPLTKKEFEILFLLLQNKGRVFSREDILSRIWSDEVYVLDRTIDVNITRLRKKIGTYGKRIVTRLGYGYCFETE", "assay": "EMSA", "settings": "EMSA: 50 mM Tris-HCl pH 7.5, 50 mM KCl, 10 mM MgCl2, 0.5 mM EDTA, 30 min at 25 C; 5% polyacrylamide gel. PS B and PS E promoter fragments (S55/S56, S57/S58 …)", "data": [{"sequence": "GGAATGGCTGGTAATCAAGTGCCTTGACTGCATCTGCATTGGCTTCTCCGTATTGAAATGATGGAGCAGCATAAGTGACTTGGCATTGAACTCCTGTAACATAATCCGGATTTTCTCCATTAAGATTATATTTAAGAGGTACGTTGGACGATGTGAAGATTAACGACGTCAACGAAGTAGTACCTGTTCCACCGAAAATATTGCCGGTAGCATAAGGTACTTCTATATCGTCGTTATCCGATGCCACTTTGATAAACTTAATATCGATGCGTGATACAATGCGTTCCAGA (double strand) [BF3397 internal fragment]", "values": [{"measurement": "binding", "result": "no binding"}]}]}
